The numbers were not newly measured in article PMC5535775, which cites them from elsewhere.

A value given as a limit tells only on which side of the number the result lay.

One may read the Kd as the concentration at which binding is half-saturated.

This data set has as its target DIAPH1 FH1 (Homo sapiens) (UniProt O60610). Nature of the data set: NMR.
Chain of UniProt O60610 (O60610 580-767): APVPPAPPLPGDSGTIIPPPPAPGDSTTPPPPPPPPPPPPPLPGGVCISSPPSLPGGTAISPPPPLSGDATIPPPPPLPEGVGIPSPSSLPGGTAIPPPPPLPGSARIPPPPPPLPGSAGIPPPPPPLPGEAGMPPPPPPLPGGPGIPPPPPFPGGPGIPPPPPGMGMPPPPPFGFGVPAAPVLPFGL

Regarding “RAGE cytoplasmic domain (from UniProt Q15109)”, the Kd is under 10 µM.
